According to patent US20220031803A1, “ANTIBACTERIAL COMPOSITION COMPRISING MICROCIN S AND ANTIBIOTIC” (priority 2017, published 2022):

Tested on: E. coli BL21 (DE3)+kan^R
Format: cell-based, Escherichia coli
Settings: OD600 growth curve, 37° C., 96-well plates, duplicates averaged
Protocol: Growth was determined by measurement of the optical density at 600 nm (OD600) for 18 hours in 96-well plates at 37° C. The profile of the OD600 curves corresponds to the bacterial growth. […] Each sample was prepared in duplicate and the results averaged.
Antimicrobial activity was investigated in a 96-well plate by incubating E. coli BL21 (DE3)+kan^R bacteria either with microcin S alone or with microcin S and an antibiotic at 37° C. for 18 h.
To investigate whether microcin S in combination with antibiotics can likewise achieve synergistic effects on sensitive bacteria, growth profiles of the microcin S-sensitive indicator strain Escherichia coli BL21 (DE3) provided with a kanamycin resistance gene are recorded photometrically in a microtitre plate of 96-well format. […] After loading with the individual samples, the microtitre plate is incubated directly in a photometer (Epoch2 microplate reader from Biotek, USA) at 37° C. and 200 rpm (double-orbital, ∞) for 15 h. The optical density at 600 nm wavelength (OD600) is measured simultaneously for all wells at regular intervals. The graphic evaluation of the recorded measurement points is done subsequently with the aid of Microsoft Excel (Microsoft Corporation, USA). […]

B1: Microcin S: Antimicrobial polypeptide of E. coli G3/10 (SEQ ID NO: 7), prepared in a cell-free E. coli based in vitro expression system (protein, listed as Escherichia coli)
chain: NANSNYEGGGSRSRNTGARNSLGRNAPTHIYSDPSTVKCANAVFSGMVGGAIKGGPVGMTRGTIGGAVIGQCLSGGGNGNGGGNRAGSSNCSGSNVGGTCSR
  Time of incubation after which the antibacterial effect is observed (collapse of bacterial growth): 5 h
